{"source": "patent US20250197505A1", "about": "(DREN BIO, published 2025)", "key": {"[1]": {"target": "T1, human CD94 expressed on cells (human primary NK cells in PBMCs; HEK cells expressing human CD94) (human, UniProt Q13241 1-179)", "T1 construct": "whole, on cells; also called KLRD1; Natural killer cells antigen CD94", "T1 sequence (looked up)": "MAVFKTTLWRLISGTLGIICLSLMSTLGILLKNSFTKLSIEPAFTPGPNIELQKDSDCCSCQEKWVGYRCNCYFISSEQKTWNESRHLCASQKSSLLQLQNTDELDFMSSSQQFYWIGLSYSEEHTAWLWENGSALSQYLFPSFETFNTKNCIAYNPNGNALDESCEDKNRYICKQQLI", "assay": "HLA-E tetramer blocking assay, flow cytometry on CD3-CD56+ NK cells in healthy donor PBMCs; antibody at one saturating concentration, blocked ligand PE-labelled HLA-E tetramer; percent blocking = 100-((percent HLA-E positive with antibody)/(percent HLA-E positive with isotype)*100)", "description": "Healthy donor PBMCs were incubated with anti-CD94 antibodies. PE labeled HLA-E tetramer was then incubated with the cell and antibody mixture, and detected using flow cytometry. For HP-3B1, 131412, 12K45, DX22, 1M4 and 1E4, 2.5 μl of HLA-E tetramer reagent was used, while 5 μl was used for 18H3 and HP-3D9. Saturating concentrations of each antibody was used in this assay. The percent blocking was calculated as 100−((percent HLA-E positive for anti-CD94 antibody)/(percent HLA-E positive for isotype)*100).\nHealthy donor PBMCs were seeded in 96-well plates at a density of 100,000 cells per well, incubated with human Fc block (Biolegend) and cell viability dye (Thermo Fisher) for 30 minutes on ice and protected from light. The cells were washed once with FACS buffer (PBS with 2% IgG low FBS). anti-CD94 antibodies at EC80 concentrations were incubated with cells for 30 minutes on ice and protected from light. After incubation with the anti-CD94 antibodies, the cells were washed and incubated with HLA-E tetramer PE (Creative Biolabs), anti-CD3 pacific blue-labelled, and anti-CD56 FITC-labelled antibodies (Biolegend) for 30 minutes on ice and protected from light. The cells then received a final wash in FACS buffer before quantification on the Cytoflex (Beckman Coulter). All data acquisition and fluorescence compensation were performed using CytoFlex (Beckman Coulter, Atlanta, GA). Data analysis was performed using FlowJo software. NK cells were identified through gating on lymphocytes on the forward and side scatter, followed by doublet and dead cell exclusion, and gated on the CD3−CD56+ population. HLA-E expression was then quantified on the CD3−CD56+NK cell population. Percent blocking was calculated as 100−((percent HLA-E positive for anti-CD94 antibody)/(percent HLA-E positive for isotype)*100)."}, "[2]": {"target": "T1, human CD94 expressed on cells (human …)", "assay": "competition assay, flow cytometry on CD3-CD56+ NK cells in healthy donor PBMCs; AF647-labelled 18H3 titrated in the presence of Mouse IgG1 control (no competitor)", "description": "FIGS. 5A-5B show the results of competition assays performed for 18H3 anti-CD94 antibody evaluation. For all competition assays, 18H3 was incubated with PBMCs at a concentration of […]. […] Commercially available anti-CD94 antibodies were titrated and incubated with PBMCs concurrently with 18H3. […] To test competition between 18H3 and 1M4/1E4, 1M4 and 1E4 were incubated with cells at concentrations of 8.5 µg/ml and […], respectively. 18H3 was fluorescently tagged with AF647 and incubated with cells concurrently with […].\nHealthy donor PBMCs were seeded in 96-well plates at a density of 100,000 cells per well, incubated with human Fc block (Biolegend) and cell viability dye (Thermo Fisher) for 30 minutes on ice and protected from light. The cells were washed once with FACS buffer (PBS with 2% IgG low FBS). Unconjugated anti-CD94 antibodies at EC80 concentrations, CD3 FITC and CD56 PE antibodies, and APC-labeled anti-CD94 antibodies were incubated with cells for 30 minutes on ice and protected from light. The cells then received a final wash in FACS buffer before quantification on the Cytoflex (Beckman Coulter). All data acquisition and fluorescence compensation were performed using CytoFlex (Beckman Coulter, Atlanta, GA). Data analysis was performed using FlowJo software. […] Anti-CD94 APC was then quantified on the CD3−CD56+NK cell population. […]"}}}
{"binder": "anti-CD94 antibody clone 18H3 (antibody, V domains shown, also called 18H3-AF647) VH: EVQLVQSGAEVKKPGESLKISCKGSGYRFTSYWIGWVRQMPGKGLEWMGIIYPGDSDTRYSPSFQGQVIISADKSITTAFLQWSSLKASDTAMYYCARPFDYGGSPGYFDYWGQGTLVTVSS VL: DIQMTQSPSTLSASVGDRVTITCRASQSIRSWLAWYQQKPGKAPKLLIYKASSLESGVPSRFSGSGSGTEFTLTISSLQPDDFATYYCQQYNTFWTFGQGTKVEIK", "values": [{"measurement": "HLA-E Blocking", "setting": "[1]", "result": 0, "unit": "%"}, {"measurement": "EC50 (read off the curve)", "setting": "[2]", "result": "~1", "unit": "nM"}]}
